The values that follow come from ChEMBL document CHEMBL1135258, “Substrate spectrum of tyrocidine thioesterase probed with randomized peptide N-acetylcysteamine thioesters” (Bioorg Med Chem Lett, 2002).

The Km is the substrate concentration at which the rate is half of its maximum.

Holding throughout (conditions): Brevibacillus brevis
Substrate in series [1]: CC(=O)NCCSC(=O)[C@H](CC(C)C)NC(=O)[C@H](CCCN)NC(=O)[C@@H](NC(=O)[C@H](Cc1ccc(O)cc1)NC(=O)[C@H](CCC(N)=O)NC(=O)[C@H](CC(N)=O)NC(=O)[C@H](Cc1c[nH]cn1)NC(=O)[C@H](Cc1ccccc1)NC(=O)[C@@H]1CCCN1C(=O)[C@H](N)Cc1ccccc1)C(C)C
Put plainly: (§1) Apparent kinetic constant (Km) determined for tyrocidine thioesterase amplified from Bacillus brevis (ATCC8185).

Substrate in series [2]: CC(=O)NCCSC(=O)[C@H](CC(C)C)NC(=O)[C@H](CCCN)NC(=O)[C@@H](NC(=O)[C@H](Cc1ccc(O)cc1)NC(=O)[C@H](CCC(N)=O)NC(=O)[C@H](CC(N)=O)NC(=O)[C@H](CC(C)C)NC(=O)[C@H](Cc1ccccc1)NC(=O)[C@@H]1CCCN1C(=O)[C@H](N)Cc1ccccc1)C(C)C
The series is described as §1.

Substrate in series [3]: CC(=O)NCCSC(=O)[C@H](CC(C)C)NC(=O)[C@H](CCCN)NC(=O)[C@@H](NC(=O)[C@H](Cc1ccc(O)cc1)NC(=O)[C@@H](NC(=O)[C@H](CC(N)=O)NC(=O)[C@@H](Cc1ccccc1)NC(=O)[C@H](Cc1ccccc1)NC(=O)[C@@H]1CCCN1C(=O)[C@H](N)Cc1ccccc1)C(C)C)C(C)C
The description is as §1.

Substrate in series [4]: CC(=O)NCCSC(=O)[C@H](CC(C)C)NC(=O)[C@H](CCCN)NC(=O)[C@H](CCC(N)=O)NC(=O)[C@H](Cc1ccc(O)cc1)NC(=O)[C@H](CCC(N)=O)NC(=O)[C@H](CC(N)=O)NC(=O)[C@@H](Cc1ccccc1)NC(=O)[C@H](Cc1ccccc1)NC(=O)[C@@H]1CCCN1C(=O)[C@H](N)Cc1ccccc1
The description is as §1.

Substrate in series [5]: CC(=O)NCCSC(=O)[C@H](CC(C)C)NC(=O)[C@H](CCCN)NC(=O)[C@@H](NC(=O)[C@H](Cc1ccc(O)cc1)NC(=O)[C@H](CCC(N)=O)NC(=O)[C@H](CC(N)=O)NC(=O)[C@H](CCCN=C(N)N)NC(=O)[C@H](Cc1ccccc1)NC(=O)[C@@H]1CCCN1C(=O)[C@H](N)Cc1ccccc1)C(C)C
Described as §1.

B1: Thioesterase GrsT homolog tycF (Brevibacillus brevis), O30412 (protein)
chain: MKLFCFPYAGGLPGIYYSWKSRLPPTFLEIDAFEVRPHIPQPNRDVFLPTSFYELLEDVCDRITPALTETPFAFFGHSMGGLVAFELTRKLMQKGAPLPQHLFLSASRAPHAYGKLAKTYNLPHDEFVEALRKLGGTPDDVLENQELLELFLPILRADFQAVQTYEMNPDLPRQVPVNMTVLYGTEDTIALEDIWAWRDYCQGACQFFPVSGGHFFIHHQTSPILEIIQNVLKEEKTVAIHSSF
Take B1: the Km in series [1] was 82 µM; in series [2] it was 29 µM; in series [3], 54 µM; in series [4], 62 µM; in series [5] it was 24 µM.
